Experiments:
[1] = target: TTERecR (Thermoanaerobacter tengcongensis MB4, UniProt Q8RDI4 1-199); test: SPR; SPR: 20 mM HEPES pH 7.4, 200 mM NaCl, 0.005% Tween 20, 25 C, SA chip; EMSA: 20 mM HEPES pH 7.4, 200 mM NaCl, 25 C, 30 min, 2 uM DNA
[2] = target: TTERecR;TTERecO (Thermoanaerobacter tengcongensis …, UniProt Q8RDI4;Q8RB48 1-199;1-247, |); test: as above
[3] = target: TTERecO (Thermoanaerobacter tengcongensis MB4, UniProt Q8RB48 1-247); test: EMSA; 10 uM protein, 2 uM DNA; SPR: 20 mM HEPES pH 7.4, 200 mM NaCl, 0.005% Tween 20, 25 C, SA chip; EMSA: 20 mM HEPES pH 7.4, 200 mM NaCl, 25 C, 30 min, 2 uM DNA; settings: protein: recombinant; tags: N-terminal His6; label: 5' biotin (SPR)
[4] = target: TTERecR R25G;TTERecO (Thermoanaerobacter tengcongensis …, UniProt Q8RDI4;Q8RB48 1-199;1-247, R28G|); test: SPR; as strong as RecOR; SPR: 20 mM HEPES pH 7.4, 200 mM NaCl, 0.005% Tween 20, 25 C, SA chip; EMSA: 20 mM HEPES pH 7.4, 200 mM NaCl, 25 C, 30 min, 2 uM DNA
[5] = target: TTERecR P16G;TTERecO (Thermoanaerobacter tengcongensis …, UniProt Q8RDI4;Q8RB48 1-199;1-247, P19G|); test: as above
[6] = target: TTERecR R25G (Thermoanaerobacter tengcongensis MB4, UniProt Q8RDI4 1-199, R28G); test: SPR; SPR: 20 mM HEPES pH 7.4, 200 mM NaCl, 0.005% Tween 20, 25 C, SA chip; EMSA: 20 mM HEPES pH 7.4, 200 mM NaCl, 25 C, 30 min, 2 uM DNA
[7] = target: TTERecR P16G (Thermoanaerobacter tengcongensis MB4, UniProt Q8RDI4 1-199, P19G); test: as above

B1: 60 mer ssDNA (ssDNA)
DNA: ATAAATATCGATGTTAAAGAGGATAAGATTTATAAAATAGCTTCTTATTTTCCTGTAGTA
[1]
  binding result: no binding
[2]
  Kd: 0.931 nM
[3]
  binding result: no binding
[4]
  binding result: binds
[5]
  binding result: binds

B2: 60 mer dsDNA (dsDNA)
DNA 1: ATAAATATCGATGTTAAAGAGGATAAGATTTATAAAATAGCTTCTTATTTTCCTGTAGTA
DNA 2: TACTACAGGAAAATAAGAAGCTATTTTATAAATCTTATCCTCTTTAACATCGATATTTAT
[1]
  Kd: 24800 nM
[2]
  Kd: 26.4 nM
[6]
  binding result: no binding
[7]
  binding result: no binding
[4]
  binding result: binds
[5]
  binding result: binds
